# Patent publication US20250019439A1 (Adimab, published 2025)
# B1: ADI-34135 (antibody, V domains shown)
# VH: QVQLVQSGAEVKKPGSSVKVSCKASGGTFSSYAISWVRQAPGQGLEWMGGIIPIFGTANYAQKFQGRVTITADESTSTAYMELSSLRSEDTAVYYCARGAPNYYGSGGYDDGWFDPWGQGTLVTVSS
# VL: EIVMTQSPGTLSLSPGERATLSCRASQSVSSSYLAWYQQKPGQAPRLLIYGASSRATGIPDRFSGSGSGTDFTLTISRLEPEDFAVYYCQQFGRYPTFGGGTKVEIK
# notes: anti-ID IgG
# Key:
# ADI-70326 = biological target: T1, ADI-70326; experiment: SPR Carterra avidity, yeast anti-ID
# T1 construct: anti-CD3 antibody made in CHO cells, captured by anti-human Fc
# Procedure: (§1) Kinetic analysis was conducted at 25° C. in an HBSTE running buffer system (Carterra Cat #3630) using a Carterra LSA (Carterra USA, Salt Lake City, UT). The sample compartment was maintained at 20° C. for the duration of each experiment.
# (§2) For antibody capture experiments, a goat anti-human Fc antibody (Jackson ImmunoResearch) was covalently coupled to an HC30M sensor chip surface via standard amine coupling (1:1 EDC:NHS) and then blocked with ethanolamine (1.0 M, pH 8.5). Covalent coupling steps were performed in 25 mM MES buffer (Carterra, Cat #3625) plus 0.05% Tween20. The anti-CD3 antibodies (100 nM in running buffer) were flowed over discrete regions of interest on the chip surface for 5 minutes. […] Dissociation of the anti-idiotype antibodies was monitored for 300s. Several blank buffer samples were injected over the entire chip surface at the start of each non-regenerative kinetic cycle. The preceding blank buffer injection was used for blank surface subtraction. At the end of each non-regenerative kinetic cycle, all surfaces were regenerated via two 30s injections of 10 mM glycine, pH 1.7.
# (§3) For data processing and fitting, sensorgrams were double reference subtracted with a baseline drift correction of 4 RU. Sensorgrams were y-aligned and baseline corrected, filtered and cropped to include only the association and dissociation steps. Data was fitted to a 1:1 binding model using Carterra Kinetics Data Analysis software version 1.7.1.3055.
# ADI-70327 = biological target: T2, ADI-70327; experiment: SPR Carterra avidity, yeast anti-ID
# T2 construct: anti-CD3 antibody made in CHO cells, captured by anti-human Fc
# Procedure: as §1, §2, §3
# ADI-70330 = biological target: T3, ADI-70330; experiment: SPR Carterra avidity, yeast anti-ID
# T3 construct: anti-CD3 antibody made in CHO cells, captured by anti-human Fc
# Procedure: as §1, §2, §3
# ADI-67450 = biological target: T4, ADI-67450; experiment: SPR Carterra avidity, yeast anti-ID
# T4 construct: anti-CD3 antibody made in CHO cells, captured by anti-human Fc
# Procedure: as §1, §2, §3
# ADI-67445 = biological target: T5, ADI-67445; experiment: SPR Carterra avidity, yeast anti-ID
# T5 construct: anti-CD3 antibody made in CHO cells, captured by anti-human Fc
# Procedure: as §1, §2, §3
# ADI-67447 = biological target: T6, ADI-67447; experiment: SPR Carterra avidity, yeast anti-ID
# T6 construct: anti-CD3 antibody made in CHO cells, captured by anti-human Fc
# Procedure: as §1, §2, §3
# ADI-26909 = biological target: T7, ADI-26909; experiment: SPR Carterra avidity, yeast anti-ID
# T7 construct: anti-CD3 antibody made in CHO cells, captured by anti-human Fc
# Procedure: as §1, §2, §3
# ADI-26913 IgG = biological target: T8, ADI-26913 IgG; experiment: SPR Carterra avidity, yeast anti-ID
# T8 construct: anti-CD3 IgG
# Procedure: as §1, §2, §3
# ADI-26916 IgG = biological target: T9, ADI-26916 IgG; experiment: SPR Carterra avidity, yeast anti-ID
# T9 construct: anti-CD3 IgG
# Procedure: as §1, §2, §3
# ADI-26912 = biological target: T10, ADI-26912; experiment: SPR Carterra avidity, yeast anti-ID
# T10 construct: anti-CD3 antibody made in CHO cells, captured by anti-human Fc
# Procedure: as §1, §2, §3
# ADI-26924 = biological target: T11, ADI-26924; experiment: SPR Carterra avidity, yeast anti-ID
# T11 construct: anti-CD3 antibody made in CHO cells, captured by anti-human Fc
# Procedure: as §1, §2, §3
# ADI-26915 = biological target: T12, ADI-26915; experiment: SPR Carterra avidity, yeast anti-ID
# T12 construct: anti-CD3 antibody made in CHO cells, captured by anti-human Fc
# Procedure: as §1, §2, §3
# ADI-48576 = biological target: T13, ADI-48576; experiment: SPR Carterra avidity, yeast anti-ID
# T13 construct: pH-dependent anti-CD3 antibody made in CHO cells
# Procedure: as §1, §2, §3
# ADI-48587 = biological target: T14, ADI-48587; experiment: SPR Carterra avidity, yeast anti-ID
# T14 construct: pH-dependent anti-CD3 antibody made in CHO cells
# Procedure: as §1, §2, §3
# ADI-48592 = biological target: T15, ADI-48592; experiment: SPR Carterra avidity, yeast anti-ID
# T15 construct: pH-dependent anti-CD3 antibody made in CHO cells
# Procedure: as §1, §2, §3
# ADI-48650 = biological target: T16, ADI-48650; experiment: SPR Carterra avidity, yeast anti-ID
# T16 construct: pH-dependent anti-CD3 antibody made in CHO cells
# Procedure: as §1, §2, §3
# ADI-74965 = biological target: T17, ADI-74965; experiment: SPR Carterra avidity, yeast anti-ID
# T17 construct: pH-dependent anti-CD3 antibody made in CHO cells
# Procedure: as §1, §2, §3
# ADI-74966 = biological target: T18, ADI-74966; experiment: SPR Carterra avidity, yeast anti-ID
# T18 construct: pH-dependent anti-CD3 antibody made in CHO cells
# Procedure: as §1, §2, §3
# ADI-74967 = biological target: T19, ADI-74967; experiment: SPR Carterra avidity, yeast anti-ID
# T19 construct: pH-dependent anti-CD3 antibody made in CHO cells
# Procedure: as §1, §2, §3
# ADI-74968 = biological target: T20, ADI-74968; experiment: SPR Carterra avidity, yeast anti-ID
# T20 construct: pH-dependent anti-CD3 antibody made in CHO cells
# Procedure: as §1, §2, §3
# ADI-76357 = biological target: T21, ADI-76357; experiment: SPR Carterra avidity, yeast anti-ID
# T21 construct: anti-CD3 antibody made in CHO cells, captured by anti-human Fc
# Procedure: as §1, §2, §3
# ADI-76358 = biological target: T22, ADI-76358; experiment: SPR Carterra avidity, yeast anti-ID
# T22 construct: anti-CD3 antibody made in CHO cells, captured by anti-human Fc
# Procedure: as §1, §2, §3
# ADI-76360 = biological target: T23, ADI-76360; experiment: SPR Carterra avidity, yeast anti-ID
# T23 construct: anti-CD3 antibody made in CHO cells, captured by anti-human Fc
# Procedure: as §1, §2, §3
# ADI-76362 = biological target: T24, ADI-76362; experiment: SPR Carterra avidity, yeast anti-ID
# T24 construct: anti-CD3 antibody made in CHO cells, captured by anti-human Fc
# Procedure: as §1, §2, §3
# CTL-62223 = biological target: T25, CTL-62223; experiment: SPR Carterra avidity, yeast anti-ID
# T25 construct: also called mosunetuzumab
# Procedure: as §1, §2, §3
# ADI-22523 Fab = biological target: T26, ADI-22523 Fab; experiment: BLI; tip anti-ID IgG, solution ADI-22523 Fab
# T26 construct: anti-CD3 Fab by papain digestion of the IgG
# Procedure: (§4) ForteBio affinity measurements were performed generally as previously described (Estep et al., MAbs. 2013 5(2):270-8). Briefly, ForteBio affinity measurements were performed by loading antibody IgG or Fabs on-line onto AHC sensors. Sensors were equilibrated off-line in assay buffer for 30 minutes and then monitored on-line for 60 seconds for baseline establishment. For avid binding measurement, sensors with loaded antibodies were exposed to IgG or Fab solutions for 3 minutes, afterwards they were transferred to assay buffer for 3 minutes for off-rate measurement. Kinetics data were fit using a 1:1 binding model in the data analysis software provided by ForteBio to obtain equilibrium dissociation constant (KD=koff/kₒₙ) values. In each column, tip-immobilized antibodies are listed first and solution antibodies second.
# ADI-22523 IgG = biological target: T27, ADI-22523 IgG; experiment: BLI; tip anti-ID IgG, solution ADI-22523 IgG
# T27 construct: anti-CD3 IgG
# Procedure: as §4
# ADI-50024 = biological target: T28, ADI-50024; experiment: SPR Carterra avidity, yeast anti-ID, *koff limit
# T28 construct: anti-CD3 antibody made in CHO cells, captured by anti-human Fc
# Procedure: as §1, §2, §3
# ADI-26906 IgG = biological target: T29, ADI-26906 IgG; experiment: SPR Carterra avidity, yeast anti-ID, *koff limit
# T29 construct: anti-CD3 IgG
# Procedure: as §1, §2, §3
# ADI-26919 = biological target: T30, ADI-26919; experiment: SPR Carterra avidity, yeast anti-ID, *koff limit
# T30 construct: anti-CD3 antibody made in CHO cells, captured by anti-human Fc
# Procedure: as §1, §2, §3
# ADI-26920 IgG = biological target: T31, ADI-26920 IgG; experiment: SPR Carterra avidity, yeast anti-ID, *koff limit
# T31 construct: anti-CD3 IgG
# Procedure: as §1, §2, §3
# ADI-26921 IgG = biological target: T32, ADI-26921 IgG; experiment: SPR Carterra avidity, yeast anti-ID, *koff limit
# T32 construct: anti-CD3 IgG
# Procedure: as §1, §2, §3
# ADI-26943 = biological target: T33, ADI-26943; experiment: SPR Carterra avidity, yeast anti-ID, *koff limit
# T33 construct: anti-CD3 antibody made in CHO cells, captured by anti-human Fc
# Procedure: as §1, §2, §3
# ADI-76359 = biological target: T34, ADI-76359; experiment: SPR Carterra avidity, yeast anti-ID, *koff limit
# T34 construct: anti-CD3 antibody made in CHO cells, captured by anti-human Fc
# Procedure: as §1, §2, §3
# ADI-76361 = biological target: T35, ADI-76361; experiment: SPR Carterra avidity, yeast anti-ID, *koff limit
# T35 construct: anti-CD3 antibody made in CHO cells, captured by anti-human Fc
# Procedure: as §1, §2, §3
# T11 sequence (VH, as listed by the source, chain 1 of 2): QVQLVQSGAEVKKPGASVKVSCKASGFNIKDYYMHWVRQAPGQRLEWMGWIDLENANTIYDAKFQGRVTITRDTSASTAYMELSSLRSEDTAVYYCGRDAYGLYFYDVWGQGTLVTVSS
# T11 sequence (VL, as listed by the source, chain 2 of 2): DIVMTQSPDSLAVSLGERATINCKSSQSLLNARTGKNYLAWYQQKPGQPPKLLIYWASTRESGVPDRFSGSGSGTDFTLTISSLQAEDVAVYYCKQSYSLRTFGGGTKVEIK
# T34 sequence (VH, as listed by the source, chain 1 of 2): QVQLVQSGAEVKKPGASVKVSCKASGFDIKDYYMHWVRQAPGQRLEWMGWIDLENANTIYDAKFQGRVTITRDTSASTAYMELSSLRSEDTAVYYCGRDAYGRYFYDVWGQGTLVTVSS
# T30 sequence (VH, as listed by the source limits assumed, chain 1 of 2): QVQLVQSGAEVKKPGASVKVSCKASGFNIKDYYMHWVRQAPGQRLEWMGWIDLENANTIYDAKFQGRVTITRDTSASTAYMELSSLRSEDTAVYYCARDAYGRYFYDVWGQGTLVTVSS
# T29 sequence (VL, as listed by the source limits assumed, chain 2 of 2): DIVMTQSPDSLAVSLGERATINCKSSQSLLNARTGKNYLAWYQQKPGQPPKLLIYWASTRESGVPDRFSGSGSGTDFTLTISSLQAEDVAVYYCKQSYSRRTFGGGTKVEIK
# T24 sequence (VH, as listed by the source, chain 1 of 2): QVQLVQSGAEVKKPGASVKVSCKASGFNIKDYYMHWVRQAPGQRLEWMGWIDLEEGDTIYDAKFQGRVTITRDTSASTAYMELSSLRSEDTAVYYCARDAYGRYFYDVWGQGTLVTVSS
# T28 sequence (VH, as listed by the source limits assumed, chain 1 of 2): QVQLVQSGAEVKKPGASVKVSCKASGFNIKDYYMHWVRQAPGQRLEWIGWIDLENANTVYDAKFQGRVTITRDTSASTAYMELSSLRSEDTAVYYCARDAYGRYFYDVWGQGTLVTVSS
# T28 sequence (VL, as listed by the source limits assumed, chain 2 of 2): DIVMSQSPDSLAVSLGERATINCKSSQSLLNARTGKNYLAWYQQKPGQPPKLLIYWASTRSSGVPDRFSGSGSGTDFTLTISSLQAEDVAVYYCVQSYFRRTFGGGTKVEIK
# T15 sequence (VH, as listed by the source, chain 1 of 2): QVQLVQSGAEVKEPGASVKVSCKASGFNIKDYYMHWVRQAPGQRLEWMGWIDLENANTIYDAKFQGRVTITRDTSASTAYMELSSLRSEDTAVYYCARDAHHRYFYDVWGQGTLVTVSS
# T15 sequence (VL, as listed by the source, chain 2 of 2): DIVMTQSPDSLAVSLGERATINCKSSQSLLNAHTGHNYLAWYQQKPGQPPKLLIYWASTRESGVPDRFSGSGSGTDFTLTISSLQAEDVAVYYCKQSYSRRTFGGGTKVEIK
# T22 sequence (VH, as listed by the source, chain 1 of 2): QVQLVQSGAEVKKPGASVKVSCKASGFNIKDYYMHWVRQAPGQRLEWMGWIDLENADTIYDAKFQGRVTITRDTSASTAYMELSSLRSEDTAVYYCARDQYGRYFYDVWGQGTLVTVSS
# T19 sequence (VH, as listed by the source, chain 1 of 2): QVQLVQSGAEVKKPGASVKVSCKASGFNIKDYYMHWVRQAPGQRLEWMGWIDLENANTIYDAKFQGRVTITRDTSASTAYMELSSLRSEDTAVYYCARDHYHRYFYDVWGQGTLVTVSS
# T19 sequence (VL, as listed by the source, chain 2 of 2): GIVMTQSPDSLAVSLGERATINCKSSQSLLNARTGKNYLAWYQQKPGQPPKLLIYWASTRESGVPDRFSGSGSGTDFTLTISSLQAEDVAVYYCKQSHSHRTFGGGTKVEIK
# T14 sequence (VL, as listed by the source, chain 2 of 2): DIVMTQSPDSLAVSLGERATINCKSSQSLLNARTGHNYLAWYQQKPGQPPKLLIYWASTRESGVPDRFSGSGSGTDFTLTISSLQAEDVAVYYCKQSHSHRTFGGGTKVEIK
# T18 sequence (VL, as listed by the source, chain 2 of 2): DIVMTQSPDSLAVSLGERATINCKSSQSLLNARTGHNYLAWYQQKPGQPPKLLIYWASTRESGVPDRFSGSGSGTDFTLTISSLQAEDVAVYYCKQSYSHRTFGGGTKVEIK
# T1 sequence (VH, as listed by the source limits assumed, chain 1 of 2): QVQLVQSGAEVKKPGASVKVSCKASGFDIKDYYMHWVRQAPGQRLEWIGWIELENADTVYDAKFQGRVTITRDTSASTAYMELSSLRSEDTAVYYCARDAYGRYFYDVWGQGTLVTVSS
# T5 sequence (VH, as listed by the source limits assumed, chain 1 of 2): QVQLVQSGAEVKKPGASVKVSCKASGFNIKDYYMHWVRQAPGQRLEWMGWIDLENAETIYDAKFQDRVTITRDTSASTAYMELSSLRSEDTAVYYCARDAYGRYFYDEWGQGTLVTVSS
# T35 sequence (VH, as listed by the source, chain 1 of 2): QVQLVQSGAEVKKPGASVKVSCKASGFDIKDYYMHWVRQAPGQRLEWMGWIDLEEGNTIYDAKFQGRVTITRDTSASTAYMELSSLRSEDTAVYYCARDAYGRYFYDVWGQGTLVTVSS
# T7 sequence (VH, as listed by the source limits assumed, chain 1 of 2): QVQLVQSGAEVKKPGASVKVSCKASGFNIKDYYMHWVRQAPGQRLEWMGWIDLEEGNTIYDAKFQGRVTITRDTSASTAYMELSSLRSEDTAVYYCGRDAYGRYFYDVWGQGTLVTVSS
# T4 sequence (VH, as listed by the source limits assumed, chain 1 of 2): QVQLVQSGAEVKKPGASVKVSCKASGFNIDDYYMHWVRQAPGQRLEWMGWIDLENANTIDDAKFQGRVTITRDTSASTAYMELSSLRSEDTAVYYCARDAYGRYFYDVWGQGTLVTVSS
# T27 sequence (VH, as listed by the source limits assumed, chain 1 of 2): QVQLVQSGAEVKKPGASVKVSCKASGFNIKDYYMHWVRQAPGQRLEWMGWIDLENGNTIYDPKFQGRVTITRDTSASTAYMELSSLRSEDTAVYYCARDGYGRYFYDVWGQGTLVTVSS
# T27 sequence (VL, as listed by the source limits assumed, chain 2 of 2): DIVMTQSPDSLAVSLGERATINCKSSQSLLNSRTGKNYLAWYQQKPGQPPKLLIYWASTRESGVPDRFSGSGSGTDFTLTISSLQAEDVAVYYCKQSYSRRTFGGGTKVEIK
binder,measurement,setting,value
B1,Kd,ADI-70326,4.1 nM
same,binding result,ADI-70327,binds
same,Kd,ADI-70330,0.47 nM
same,Kd,ADI-67450,0.63 nM
same,Kd,ADI-67445,0.34 nM
same,Kd,ADI-67447,0.26 nM
same,Kd,ADI-26909,0.1 nM
same,Kd,ADI-26913 IgG,0.1 nM
same,Kd,ADI-26916 IgG,0.14 nM
same,binding result,ADI-26912,binds
same,Kd,ADI-26924,0.14 nM
same,Kd,ADI-26915,15 nM
same,Kd,ADI-48576,31 nM
same,Kd,ADI-48587,1.8 nM
same,Kd,ADI-48592,19 nM
same,binding result,ADI-48650,binds
same,binding result,ADI-74965,binds
same,Kd,ADI-74966,0.35 nM
same,Kd,ADI-74967,0.21 nM
same,Kd,ADI-74968,0.83 nM
same,Kd,ADI-76357,0.097 nM
same,Kd,ADI-76358,1.1 nM
same,Kd,ADI-76360,0.15 nM
same,Kd,ADI-76362,0.41 nM
same,Kd,CTL-62223,1.2 nM
same,Kd,ADI-22523 Fab,7.81 nM
same,Kd,ADI-22523 IgG,0.54 nM
same,Kd,ADI-50024,0.17 nM
same,Kd,ADI-26906 IgG,0.13 nM
same,Kd,ADI-26919,0.082 nM
same,Kd,ADI-26920 IgG,0.11 nM
same,Kd,ADI-26921 IgG,0.073 nM
same,Kd,ADI-26943,0.099 nM
same,Kd,ADI-76359,0.053 nM
same,Kd,ADI-76361,0.044 nM
